# B1: αB crystallin (natural protein, human, UniProt P02511 1-175, looked up)
# chain: MDIAIHHPWIRRPFFPFHSPSRLFDQFFGEHLLESDLFPTSTSLSPFYLRPPSFLRAPSWFDTGLSEMRLEKDRFSVNLDVKHFSPEELKVKVLGDVIEVHGKHEERQDEHGFISREFHRKYRIPADVDPLTITSSLSSDGVLTVNGPRKQVSGPERTIPITREEKPAVTAAPKK
# notes: αB crystallin, human, open reading frame of the full-length gene in pET28; Homo-oligomer in solution; No removal of the His tag is mentioned; also called alpha-B crystallin; source: E. coli BL21(DE3), purified (Ni-NTA, size-exclusion chromatography)
# Biological target: the molecule itself
# Experiment: SEC; HiPrep Sephacryl S-300 HR 16/60 column, 20 mM phosphate buffer, pH 7.4, 150 mM NaCl; each crystallin alone
protein,measurement,value
B1,binding result,binds

# — paper PMC9409278, “Conformational Changes of α-Crystallin Proteins Induced by Heat Stress” (International Journal of Molecular Sciences, 2022)
